{"source": "the supplement of paper PMC10567573", "parents": {"B1": {"name": "PLK2 (parent)", "chain": "MELLRTITYQPAASTKMCEQALGK"}, "B2": {"name": "DLC1 (parent)", "chain": "KRSWEEHVTHWMGQPFNSDDRNTA"}}, "data": [{"variants_of": "B1", "assay": "protein stability index of a GFP-peptide fusion (GPS, HEK-293T) (PSI 1-6); higher = more stable", "conditions": "c terminus: a fixed tail appended", "values": [{"variant": "MELLRTITYQPAASTKMCEQALYK", "note": "[G23Y]", "protein stability index": 1.9}, {"variant": "MELLRTITYQPAASTKMCEQALWK", "note": "[G23W]", "protein stability index": 3.02}, {"variant": "MELLRTITYQPAASTKMCEQALGY", "note": "[K24Y]", "protein stability index": 3.96}, {"variant": "MELLRTITYQPAASTKMCEQALGG", "note": "[K24G]", "protein stability index": 1.65}, {"variant": "MELLRTITYQPAASTKMCEQALGW", "note": "[K24W]", "protein stability index": 3.92}, {"variant": "MELLRTITYQPAASTKMCEQALGP", "note": "[K24P]", "protein stability index": 2.65}, {"variant": "MELLRTITYQPAASTKMCEQALGT", "note": "[K24T]", "protein stability index": 2.21}, {"variant": "MELLRTITYQPAASTKMCEQALGA", "note": "[K24A]", "protein stability index": 2.89}, {"variant": "MELLRTITYQPAASTKMCEQALGL", "note": "[K24L]", "protein stability index": 3.19}, {"variant": "MELLRTITYQPAASTKMCEQALGC", "note": "[K24C]", "protein stability index": 2.46}, {"variant": "MELLRTITYQPAASTKMCEQALGN", "note": "[K24N]", "protein stability index": 2.59}, {"variant": "MELLRTITYQPAASTKMCEQALGM", "note": "[K24M]", "protein stability index": 3.29}, {"variant": "MELLRTITYQPAASTKMCEQALGE", "note": "[K24E]", "protein stability index": 1.41}, {"variant": "MELLRTITYQPAASTKMCEQALGS", "note": "[K24S]", "protein stability index": 2.47}, {"variant": "MELLRTITYQPAASTKMCEQALGR", "note": "[K24R]", "protein stability index": 1.98}, {"variant": "MELLRTITYQPAASTKMCEQALGH", "note": "[K24H]", "protein stability index": 3.08}, {"variant": "MELLRTITYQPAASTKMCEQALGV", "note": "[K24V]", "protein stability index": 2.86}, {"variant": "MELLRTITYQPAASTKMCEQALGF", "note": "[K24F]", "protein stability index": 3.31}, {"variant": "MELLRTITYQPAASTKMCEQALGQ", "note": "[K24Q]", "protein stability index": 1.89}, {"variant": "MELLRTITYQPAASTKMCEQALGD", "note": "[K24D]", "protein stability index": 2.73}, {"variant": "MELLRTITYQPAASTKMCEQALGI", "note": "[K24I]", "protein stability index": 3.23}]}, {"variants_of": "B2", "assay": "protein stability index of a GFP-peptide fusion (GPS, HEK-293T) (PSI 1-6); higher = more stable", "conditions": "c terminus: a fixed tail appended", "values": [{"variant": "KRSWEWHVTHWMGQPFNSDDRNTA", "note": "[E6W]", "protein stability index": 2.67}, {"variant": "KRSWELHVTHWMGQPFNSDDRNTA", "note": "[E6L]", "protein stability index": 2.58}, {"variant": "KRSWEMHVTHWMGQPFNSDDRNTA", "note": "[E6M]", "protein stability index": 2.66}, {"variant": "KRSWEHHVTHWMGQPFNSDDRNTA", "note": "[E6H]", "protein stability index": 3.36}, {"variant": "KRSWEQHVTHWMGQPFNSDDRNTA", "note": "[E6Q]", "protein stability index": 3.27}, {"variant": "KRSWECHVTHWMGQPFNSDDRNTA", "note": "[E6C]", "protein stability index": 2.87}, {"variant": "KRSWEVHVTHWMGQPFNSDDRNTA", "note": "[E6V]", "protein stability index": 2.53}, {"variant": "KRSWESHVTHWMGQPFNSDDRNTA", "note": "[E6S]", "protein stability index": 3.24}, {"variant": "KRSWEYHVTHWMGQPFNSDDRNTA", "note": "[E6Y]", "protein stability index": 2.31}, {"variant": "KRSWEGHVTHWMGQPFNSDDRNTA", "note": "[E6G]", "protein stability index": 3.48}, {"variant": "KRSWEAHVTHWMGQPFNSDDRNTA", "note": "[E6A]", "protein stability index": 2.72}, {"variant": "KRSWERHVTHWMGQPFNSDDRNTA", "note": "[E6R]", "protein stability index": 3.46}, {"variant": "KRSWENHVTHWMGQPFNSDDRNTA", "note": "[E6N]", "protein stability index": 3.98}, {"variant": "KRSWEIHVTHWMGQPFNSDDRNTA", "note": "[E6I]", "protein stability index": 2.44}, {"variant": "KRSWEKHVTHWMGQPFNSDDRNTA", "note": "[E6K]", "protein stability index": 3.32}, {"variant": "KRSWEPHVTHWMGQPFNSDDRNTA", "note": "[E6P]", "protein stability index": 3.46}, {"variant": "KRSWEDHVTHWMGQPFNSDDRNTA", "note": "[E6D]", "protein stability index": 3.06}, {"variant": "KRSWEFHVTHWMGQPFNSDDRNTA", "note": "[E6F]", "protein stability index": 2.27}, {"variant": "KRSWETHVTHWMGQPFNSDDRNTA", "note": "[E6T]", "protein stability index": 3.15}, {"variant": "KRSVEEHVTHWMGQPFNSDDRNTA", "note": "[W4V]", "protein stability index": 4.36}, {"variant": "KRSQEEHVTHWMGQPFNSDDRNTA", "note": "[W4Q]", "protein stability index": 4.71}, {"variant": "KRSGEEHVTHWMGQPFNSDDRNTA", "note": "[W4G]", "protein stability index": 4.38}, {"variant": "KRSEEEHVTHWMGQPFNSDDRNTA", "note": "[W4E]", "protein stability index": 5.05}, {"variant": "KRSAEEHVTHWMGQPFNSDDRNTA", "note": "[W4A]", "protein stability index": 4.41}, {"variant": "KRSTEEHVTHWMGQPFNSDDRNTA", "note": "[W4T]", "protein stability index": 4.76}, {"variant": "KRSLEEHVTHWMGQPFNSDDRNTA", "note": "[W4L]", "protein stability index": 3.45}, {"variant": "KRSPEEHVTHWMGQPFNSDDRNTA", "note": "[W4P]", "protein stability index": 4.45}, {"variant": "KRSSEEHVTHWMGQPFNSDDRNTA", "note": "[W4S]", "protein stability index": 4.32}, {"variant": "KRSHEEHVTHWMGQPFNSDDRNTA", "note": "[W4H]", "protein stability index": 4.44}, {"variant": "KRSREEHVTHWMGQPFNSDDRNTA", "note": "[W4R]", "protein stability index": 4.62}, {"variant": "KRSCEEHVTHWMGQPFNSDDRNTA", "note": "[W4C]", "protein stability index": 4.2}, {"variant": "KRSIEEHVTHWMGQPFNSDDRNTA", "note": "[W4I]", "protein stability index": 4.41}, {"variant": "KRSNEEHVTHWMGQPFNSDDRNTA", "note": "[W4N]", "protein stability index": 4.95}, {"variant": "KRSYEEHVTHWMGQPFNSDDRNTA", "note": "[W4Y]", "protein stability index": 4.08}, {"variant": "KRSKEEHVTHWMGQPFNSDDRNTA", "note": "[W4K]", "protein stability index": 4.48}, {"variant": "KRSFEEHVTHWMGQPFNSDDRNTA", "note": "[W4F]", "protein stability index": 4.09}, {"variant": "KRSMEEHVTHWMGQPFNSDDRNTA", "note": "[W4M]", "protein stability index": 3.95}, {"variant": "KRSDEEHVTHWMGQPFNSDDRNTA", "note": "[W4D]", "protein stability index": 5.21}, {"variant": "KKSWEEHVTHWMGQPFNSDDRNTA", "note": "[R2K]", "protein stability index": 2.6}, {"variant": "KYSWEEHVTHWMGQPFNSDDRNTA", "note": "[R2Y]", "protein stability index": 3.25}, {"variant": "KPSWEEHVTHWMGQPFNSDDRNTA", "note": "[R2P]", "protein stability index": 3.37}, {"variant": "KVSWEEHVTHWMGQPFNSDDRNTA", "note": "[R2V]", "protein stability index": 3.26}, {"variant": "KQSWEEHVTHWMGQPFNSDDRNTA", "note": "[R2Q]", "protein stability index": 3.11}, {"variant": "KCSWEEHVTHWMGQPFNSDDRNTA", "note": "[R2C]", "protein stability index": 2.52}, {"variant": "KMSWEEHVTHWMGQPFNSDDRNTA", "note": "[R2M]", "protein stability index": 2.79}, {"variant": "KLSWEEHVTHWMGQPFNSDDRNTA", "note": "[R2L]", "protein stability index": 3.28}, {"variant": "KGSWEEHVTHWMGQPFNSDDRNTA", "note": "[R2G]", "protein stability index": 3.61}, {"variant": "KSSWEEHVTHWMGQPFNSDDRNTA", "note": "[R2S]", "protein stability index": 3.79}, {"variant": "KISWEEHVTHWMGQPFNSDDRNTA", "note": "[R2I]", "protein stability index": 2.71}, {"variant": "KTSWEEHVTHWMGQPFNSDDRNTA", "note": "[R2T]", "protein stability index": 3.7}, {"variant": "KHSWEEHVTHWMGQPFNSDDRNTA", "note": "[R2H]", "protein stability index": 3.08}, {"variant": "KWSWEEHVTHWMGQPFNSDDRNTA", "note": "[R2W]", "protein stability index": 2.98}, {"variant": "KDSWEEHVTHWMGQPFNSDDRNTA", "note": "[R2D]", "protein stability index": 4.37}, {"variant": "KFSWEEHVTHWMGQPFNSDDRNTA", "note": "[R2F]", "protein stability index": 3.62}, {"variant": "KESWEEHVTHWMGQPFNSDDRNTA", "note": "[R2E]", "protein stability index": 3.61}, {"variant": "KNSWEEHVTHWMGQPFNSDDRNTA", "note": "[R2N]", "protein stability index": 3.67}, {"variant": "KASWEEHVTHWMGQPFNSDDRNTA", "note": "[R2A]", "protein stability index": 3.11}, {"variant": "KRSWEESVTHWMGQPFNSDDRNTA", "note": "[H7S]", "protein stability index": 3.71}, {"variant": "KRSWEEQVTHWMGQPFNSDDRNTA", "note": "[H7Q]", "protein stability index": 2.75}, {"variant": "KRSWEETVTHWMGQPFNSDDRNTA", "note": "[H7T]", "protein stability index": 3.21}, {"variant": "KRSWEEFVTHWMGQPFNSDDRNTA", "note": "[H7F]", "protein stability index": 2.84}, {"variant": "KRSWEEGVTHWMGQPFNSDDRNTA", "note": "[H7G]", "protein stability index": 4.29}, {"variant": "KRSWEEWVTHWMGQPFNSDDRNTA", "note": "[H7W]", "protein stability index": 2.82}, {"variant": "KRSWEEAVTHWMGQPFNSDDRNTA", "note": "[H7A]", "protein stability index": 3.54}, {"variant": "KRSWEECVTHWMGQPFNSDDRNTA", "note": "[H7C]", "protein stability index": 3.33}, {"variant": "KRSWEERVTHWMGQPFNSDDRNTA", "note": "[H7R]", "protein stability index": 3.08}, {"variant": "KRSWEENVTHWMGQPFNSDDRNTA", "note": "[H7N]", "protein stability index": 4.35}, {"variant": "KRSWEEYVTHWMGQPFNSDDRNTA", "note": "[H7Y]", "protein stability index": 2.29}, {"variant": "KRSWEEVVTHWMGQPFNSDDRNTA", "note": "[H7V]", "protein stability index": 3.18}, {"variant": "KRSWEEIVTHWMGQPFNSDDRNTA", "note": "[H7I]", "protein stability index": 3.75}, {"variant": "KRSWEEKVTHWMGQPFNSDDRNTA", "note": "[H7K]", "protein stability index": 3.44}, {"variant": "KRSWEEPVTHWMGQPFNSDDRNTA", "note": "[H7P]", "protein stability index": 4.2}, {"variant": "KRSWEEMVTHWMGQPFNSDDRNTA", "note": "[H7M]", "protein stability index": 2.84}]}]}
